Experimental data taken from paper PMC12719470 (2025).

Biological target: T1, TNFR2-His protein (UniProt P20333 23-461)
T1 chain: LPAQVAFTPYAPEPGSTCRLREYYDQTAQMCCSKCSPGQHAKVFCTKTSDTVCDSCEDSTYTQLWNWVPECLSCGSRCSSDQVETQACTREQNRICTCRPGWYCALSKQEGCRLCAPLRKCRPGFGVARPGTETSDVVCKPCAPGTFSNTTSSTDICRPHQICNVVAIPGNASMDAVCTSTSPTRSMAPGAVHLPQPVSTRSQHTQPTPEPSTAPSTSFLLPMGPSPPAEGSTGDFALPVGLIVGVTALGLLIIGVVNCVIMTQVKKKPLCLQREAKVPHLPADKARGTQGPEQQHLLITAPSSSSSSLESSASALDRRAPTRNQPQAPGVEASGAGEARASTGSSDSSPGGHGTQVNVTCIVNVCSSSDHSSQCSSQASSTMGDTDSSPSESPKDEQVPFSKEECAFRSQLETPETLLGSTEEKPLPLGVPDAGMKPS
Experiment: BLI

Kd: 214 µM
B1: Nanobody-161 IgG1 Y105G (Fc fusion)
chain: EVQLVESGGGLVQPGGSLRLSCAASGSIRFINDMGWYRQAPGKGLELVAAIGRGGGSTNYADSVKGRFTISRDNAKNTLYLQMNSLRAEDTAVYYCHAEISQLGGAFRDYWGQGTLVTVSS
